Measured values reported in the supplement of paper PMC9170038.

System: K4 kissing-loop RNA reporter
Assay: apparent KD of K4 kissing-loop reporter; higher = weaker reporter binding
Details: Eterna round: R107
Procedure: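 RNA-MaP round R107: designed RNA switches with theophylline, tryptophan, arginine or FMN aptamers are transcribed on-chip within common flanks. They are titrated with a labelled K4 kissing-loop RNA reporter in RNA-MaP buffer (100 mM Tris pH 7.5, 80 mM KCl, 4 mM MgCl2), without ligand or with the indicated ligand. Median apparent KD per design.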

[1] = input ligand: theophylline 20 uM
[2] = input ligand: tryptophan 2.4 mM
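Also: bound reporter read as fluorescence of individual clusters on recovered sequencing chips by microscopy, with normalized cluster intensities fitted with a binding model.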

Row | Sequence | apparent KD of K4 kissing-loop reporter (input ligand: FMN 200 uM) | apparent KD of K4 kissing-loop reporter (input ligand: arginine 13.2 mM) | apparent KD of K4 kissing-loop reporter (input ligand: none) | apparent KD of K4 kissing-loop reporter [1] | apparent KD of K4 kissing-loop reporter [2]
1 | GUAGACAGACUGCGGGCCUAGUCUACAGACUAGGAUAUCAGGAAACUGAGAAGGAGUCUAGUUGCAGUGAUGUUGCAAGAAUAAU [KL-SSFMN-A26] | 99.1 nM | 115 nM | 93.6 nM | 114 nM | 78.4 nM
2 | GUAUCGCUAGGAGGAUAUUCCAUUUUACAUAGAAAUGGCUAUGCGGAGUGAUGUUCCGAUUUACGGGAAGAAGGCCUAGUGAUAC [FMN B 21] | 137 nM | 119 nM | 131 nM | 115 nM | 121 nM
3 | GUAUCGCUAGGAGGAUAUUUCAAAUAACCAAUAAAUGGUUAUACGGAGUGAUGUUCCGAUUUACGGAAAGAAGGCCUAGUGAUAC [FMN B 5] | 137 nM | 276 nM | 302 nM | 319 nM | 290 nM
4 | GUGCGGUGGAGGUUACCGCUAUUCUGAGAAGGAGCGCAGAUGACUGCAGGUAGGUCGCUUAGAGCUUGCAGUGAUGUUGCAAGUU [Berienza] | 220 nM | 174 nM | 199 nM | 166 nM | 200 nM
5 | GUGGAAUUAUGAAAGUGGUUUUAUUAGGAAGGAGCGGCCGAAAGGCCAGGUAGGUCGCCUAUUGACAGUGAUGUUGUUAUAUGGU [#14] | 158 nM | 199 nM | 151 nM | 204 nM | 94.3 nM
6 | GUGGCGACGCAAGGAUAUGGGUGCUAGUGAUGUUAGCCUUUGCUCCAUGUCACGUGGUCUGCACACCCAGAAGGUGCGGGAAGAU [theeternabot_exclusion_KL_FMN_B_9] | 482 nM | 293 nM | 327 nM | 307 nM | 354 nM
7 | GUUACGCAUGGAAGGAGCGCACUCCGAUUGGUCGACACAGUGAUGUUGUGGUUCGUUCGAAUGCAGGUAGGUCGCCAUGUGUAAC [Ex Arginine B K4 18] | 165 nM | 143 nM | 175 nM | 145 nM | 150 nM
8 | GUUACGCAUGGAAGGAGCGCAGGCUCAACAAAUAGCUCAGUGAUGUUGAGCAUAUUAAAUCUGCAGGUAGGUCGCCAUGUGUAAC [Ex Arginine B K4 24] | 498 nM | 500 nM | 504 nM | 559 nM | 581 nM
9 | GUUAUGGACCUGGAUACCAGCUGGUACUAAGUGGGAGAAUGAAAGUGAUGUUUUCGUGCUAGCCCUUGGCAGCCAGCAACCCGCA [XTheo-B7] | 104 nM | 83.6 nM | 89.4 nM | 79.4 nM | 80.1 nM
10 | GUUCUCGAAACUCAGUGAUGUUGAGUUGCAGAGGAUAUCCGCACAUGGAGAAGGCUGCAGUAAUUUAAAGACUCAGCGGCGCUCC [Riare] | 112 nM | 117 nM | 115 nM | 120 nM | 115 nM
11 | UAACUUGCAGUGAUGUUGCAAGAACUGGAUACCAGCAUGGAAACAUGCCCUUGGCAGCCAGAAGCUGGCUGAACAUCACGUCAGU [Design5] | 227 nM | 140 nM | 308 nM | 159 nM | 217 nM
12 | UAAGAAUAAGUAGCAGUGAUGUUGCUACUACGAGGACCGGUACGGCCGCCACUCGAAUACGAGUGGAAGUAGCAACUACCACUCA [(H1)-(H2)-(Trp1)-(Trp2)-(T)'-(H)'-(T)''_Design7] | 114 nM | 96.2 nM | 125 nM | 88 nM | 135 nM
13 | UAAUAAAUUCCAGCGAUGUCACUCUUCGAAGGAGCGGACGAAAGUCCAGGUAGGUCGCGAAGAGUGAUGUUCUUCGCGGCGCUGG [Omei KL Arginine A Exc A v3] | 167 nM | 115 nM | 183 nM | 204 nM | 174 nM
14 | UAAUUUAUGUCUUUAAUUUUAUUAUCAGAUACCAGUGAUUUAUGACACCCUUGGCAGCUGUAUUGAGUGAUGUUCUUAUAUUAAA [JR_Nu_ExcTheophyA_Sub023] | 111 nM | 111 nM | 118 nM | 190 nM | 72.5 nM
15 | UACACGACUCGUGUAAACCGAGGUAACAGGCAGGAUAUGUAACGGAACAGAAGGGCCAUGUUGCGUGUCCAGUGAUGUUGGAUGC [Vetedile] | 170 nM | 231 nM | 270 nM | 272 nM | 246 nM
16 | UACAGGGAUAGUGAUGUUAUCCCAUGUGAUACCAGUGUCAUCCAACACCCUUGGCAGCAUACGGGCAGUGAUGUUGUUCUUGGUA [#17 K4 Theophylline A Exclusion] | 91.7 nM | 75.4 nM | 91.6 nM | 77.5 nM | 84.3 nM
17 | UACCUGCUGUCAGGAUAUGAGUGCAGUGAUGUUGCACUCAACGUAACCAUCUUGAAAUGCAAACACUCAGAAGGGACGCGCGAAG [Onaninso] | 151 nM | 99.8 nM | 122 nM | 91.8 nM | 102 nM
18 | UACUAACGUUAAGGAUAUGCGUCGAUUACCGGUAAGUGAUGUUUAGCGCCCGGGCAACGGUGGGUCGCAGAAGGUAAACACAGUU [theeternabot_sameState_KL_FMN_B_19] | 689 nM | 551 nM | 795 nM | 640 nM | 610 nM
